According to patent US20020127721A1:

What was measured:
[1] = molecular target: human coxsackievirus and adenovirus receptor (CAR) (human) (UniProt P78310); assay: cell-based or functional assay
[2] = molecular target: human coxsackievirus and adenovirus receptor (CAR) (human) (UniProt P78310); assay: flow cytometry, RmcB staining of 3T3 cells after Ad5CMVhCAR:CaPi gene transfer
[3] = molecular target: human coxsackievirus and adenovirus receptor (CAR) (human) (UniProt P78310); assay: flow cytometry, RmcB staining of CHO cells after Ad5CMVhCAR:CaPi gene transfer

UniProt P78310, sequence (P78310 20-365): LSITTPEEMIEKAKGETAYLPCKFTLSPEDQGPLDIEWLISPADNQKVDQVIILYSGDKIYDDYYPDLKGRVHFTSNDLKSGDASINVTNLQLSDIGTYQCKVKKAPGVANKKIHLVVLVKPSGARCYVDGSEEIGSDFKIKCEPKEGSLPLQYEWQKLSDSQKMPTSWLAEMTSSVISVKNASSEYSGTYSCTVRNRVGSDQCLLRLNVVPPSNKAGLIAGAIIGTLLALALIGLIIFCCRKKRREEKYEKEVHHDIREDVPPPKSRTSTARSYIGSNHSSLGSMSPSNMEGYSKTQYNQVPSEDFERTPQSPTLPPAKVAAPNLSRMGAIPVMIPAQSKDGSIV

Row | Substance | infection of 3T3 cells after CAR gene transfer (% eGFP-positive by FACS; 3% without CAR) [1] | infection of CHO cells after CAR gene transfer (% eGFP-positive by FACS; 0% without CAR) [1] | percent of cells positive for CAR [2] | percent of cells positive for CAR [3]
1 | Ad5 fiber (endogenous, non-recombinant fiber of the control virus Ad5RSVeGFP) (from UniProt P11818 1-581) | 21% | 57% | – | –
2 | monoclonal antibodies (mAbs) against CAR (RmcB) (antibody) | – | – | 92% | 96%
